Reference: patent publication US20210246166A1 (Bayer, published 2021)
Bridge positions count the residues as written; N and C are the ends. Square brackets hold non-standard residues; d marks the D form. Ends that are not written are not given here. Oic = O=C(O)[C@@H]1C[C@@H]2CCCC[C@@H]2N1; Phe(2-Br) = N[C@@H](Cc1ccccc1Br)C(=O)O; tBuAla = CC(C)(C)C[C@H](N)C(=O)O; Pen = CC(C)(S)[C@H](N)C(=O)O; NMeC = CN[C@@H](CS)C(=O)O; NMeA = CN[C@@H](C)C(=O)O; Sar = CNCC(=O)O

B1: AIC+SRSLP-(Oic)-I-(Pen)+IPE-NH2 (peptide)
peptide: AICSRSLP[Oic]I[Pen]IPE-NH2
modifications: disulfide 3-11; N-terminus assumed
SMILES: CC[C@H](C)[C@H](NC(=O)[C@H](C)N)C(=O)N[C@H]1CSSC(C)(C)[C@@H](C(=O)N[C@H](C(=O)N2CCC[C@H]2C(=O)N[C@@H](CCC(=O)O)C(N)=O)[C@@H](C)CC)NC(=O)[C@H]([C@@H](C)CC)NC(=O)[C@@H]2C[C@@H]3CCCC[C@@H]3N2C(=O)[C@@H]2CCCN2C(=O)[C@H](CC(C)C)NC(=O)[C@H](CO)NC(=O)[C@H](CCCNC(=N)N)NC(=O)[C@H](CO)NC1=O
B2: ((N-Me)A)-IC+SRSLP-(Oic)-I-(Pen)+IP-OH (peptide)
peptide: [NMeA]ICSRSLP[Oic]I[Pen]IP-OH
modifications: disulfide 3-11; N-terminus assumed
SMILES: CC[C@H](C)[C@H](NC(=O)[C@H](C)NC)C(=O)N[C@H]1CSSC(C)(C)[C@@H](C(=O)N[C@H](C(=O)N2CCC[C@H]2C(=O)O)[C@@H](C)CC)NC(=O)[C@H]([C@@H](C)CC)NC(=O)[C@@H]2C[C@@H]3CCCC[C@@H]3N2C(=O)[C@@H]2CCCN2C(=O)[C@H](CC(C)C)NC(=O)[C@H](CO)NC(=O)[C@H](CCCNC(=N)N)NC(=O)[C@H](CO)NC1=O
B3: PIC+SRS-((tBu)A)-PPI-(Pen)+IPD-NH2 (peptide)
peptide: PICSRS[tBuAla]PPI[Pen]IPD-NH2
modifications: disulfide 3-11; N-terminus assumed
SMILES: CC[C@H](C)[C@H](NC(=O)[C@@H]1CCCN1)C(=O)N[C@H]1CSSC(C)(C)[C@@H](C(=O)N[C@H](C(=O)N2CCC[C@H]2C(=O)N[C@@H](CC(=O)O)C(N)=O)[C@@H](C)CC)NC(=O)[C@H]([C@@H](C)CC)NC(=O)[C@@H]2CCCN2C(=O)[C@@H]2CCCN2C(=O)[C@H](CC(C)(C)C)NC(=O)[C@H](CO)NC(=O)[C@H](CCCNC(=N)N)NC(=O)[C@H](CO)NC1=O
B4: AIC+SRS-((2-Bromo)F)-PPI-(Pen)+IPD-NH2 (peptide)
peptide: AICSRS[Phe(2-Br)]PPI[Pen]IPD-NH2
modifications: disulfide 3-11; N-terminus assumed
SMILES: CC[C@H](C)[C@H](NC(=O)[C@H](C)N)C(=O)N[C@H]1CSSC(C)(C)[C@@H](C(=O)N[C@H](C(=O)N2CCC[C@H]2C(=O)N[C@@H](CC(=O)O)C(N)=O)[C@@H](C)CC)NC(=O)[C@H]([C@@H](C)CC)NC(=O)[C@@H]2CCCN2C(=O)[C@@H]2CCCN2C(=O)[C@H](Cc2ccccc2Br)NC(=O)[C@H](CO)NC(=O)[C@H](CCCNC(=N)N)NC(=O)[C@H](CO)NC1=O
B5: AIC+SRSLP-(Oic)-I-(Pen)+IPE-OH (peptide)
peptide: AICSRSLP[Oic]I[Pen]IPE-OH
modifications: disulfide 3-11; N-terminus assumed
SMILES: CC[C@H](C)[C@H](NC(=O)[C@H](C)N)C(=O)N[C@H]1CSSC(C)(C)[C@@H](C(=O)N[C@H](C(=O)N2CCC[C@H]2C(=O)N[C@@H](CCC(=O)O)C(=O)O)[C@@H](C)CC)NC(=O)[C@H]([C@@H](C)CC)NC(=O)[C@@H]2C[C@@H]3CCCC[C@@H]3N2C(=O)[C@@H]2CCCN2C(=O)[C@H](CC(C)C)NC(=O)[C@H](CO)NC(=O)[C@H](CCCNC(=N)N)NC(=O)[C@H](CO)NC1=O
B6: ((N-Me)A)-IC+SRSLP-(Oic)-I-(Pen)+IPD-NH2 (peptide)
peptide: [NMeA]ICSRSLP[Oic]I[Pen]IPD-NH2
modifications: disulfide 3-11; N-terminus assumed
SMILES: CC[C@H](C)[C@H](NC(=O)[C@H](C)NC)C(=O)N[C@H]1CSSC(C)(C)[C@@H](C(=O)N[C@H](C(=O)N2CCC[C@H]2C(=O)N[C@@H](CC(=O)O)C(N)=O)[C@@H](C)CC)NC(=O)[C@H]([C@@H](C)CC)NC(=O)[C@@H]2C[C@@H]3CCCC[C@@H]3N2C(=O)[C@@H]2CCCN2C(=O)[C@H](CC(C)C)NC(=O)[C@H](CO)NC(=O)[C@H](CCCNC(=N)N)NC(=O)[C@H](CO)NC1=O
B7: AIC+SRSLP-(Oic)-I-(Pen)+IP-OH (peptide)
peptide: AICSRSLP[Oic]I[Pen]IP-OH
modifications: disulfide 3-11; N-terminus assumed
SMILES: CC[C@H](C)[C@H](NC(=O)[C@H](C)N)C(=O)N[C@H]1CSSC(C)(C)[C@@H](C(=O)N[C@H](C(=O)N2CCC[C@H]2C(=O)O)[C@@H](C)CC)NC(=O)[C@H]([C@@H](C)CC)NC(=O)[C@@H]2C[C@@H]3CCCC[C@@H]3N2C(=O)[C@@H]2CCCN2C(=O)[C@H](CC(C)C)NC(=O)[C@H](CO)NC(=O)[C@H](CCCNC(=N)N)NC(=O)[C@H](CO)NC1=O
B8: AIC+SRSLP-(Oic)-I-(Pen)+I-OH (peptide)
peptide: AICSRSLP[Oic]I[Pen]I-OH
modifications: disulfide 3-11; N-terminus assumed
SMILES: CC[C@H](C)[C@H](NC(=O)[C@H]1NC(=O)[C@H]([C@@H](C)CC)NC(=O)[C@@H]2C[C@@H]3CCCC[C@@H]3N2C(=O)[C@@H]2CCCN2C(=O)[C@H](CC(C)C)NC(=O)[C@H](CO)NC(=O)[C@H](CCCNC(=N)N)NC(=O)[C@H](CO)NC(=O)[C@@H](NC(=O)[C@@H](NC(=O)[C@H](C)N)[C@@H](C)CC)CSSC1(C)C)C(=O)O
B9: AIC+SRS-((tBu)A)-P-(Oic)-I-(Pen)+IPD-NH2 (peptide)
peptide: AICSRS[tBuAla]P[Oic]I[Pen]IPD-NH2
modifications: disulfide 3-11; N-terminus assumed
SMILES: CC[C@H](C)[C@H](NC(=O)[C@H](C)N)C(=O)N[C@H]1CSSC(C)(C)[C@@H](C(=O)N[C@H](C(=O)N2CCC[C@H]2C(=O)N[C@@H](CC(=O)O)C(N)=O)[C@@H](C)CC)NC(=O)[C@H]([C@@H](C)CC)NC(=O)[C@@H]2C[C@@H]3CCCC[C@@H]3N2C(=O)[C@@H]2CCCN2C(=O)[C@H](CC(C)(C)C)NC(=O)[C@H](CO)NC(=O)[C@H](CCCNC(=N)N)NC(=O)[C@H](CO)NC1=O

How the values were obtained:
[1] = biological target: T1, recombinant human MASP1 active protease (amino acids 297-699, C-terminal His Tag) (human, UniProt P48740 297-699); test: cell-based or functional assay
T1 sequence: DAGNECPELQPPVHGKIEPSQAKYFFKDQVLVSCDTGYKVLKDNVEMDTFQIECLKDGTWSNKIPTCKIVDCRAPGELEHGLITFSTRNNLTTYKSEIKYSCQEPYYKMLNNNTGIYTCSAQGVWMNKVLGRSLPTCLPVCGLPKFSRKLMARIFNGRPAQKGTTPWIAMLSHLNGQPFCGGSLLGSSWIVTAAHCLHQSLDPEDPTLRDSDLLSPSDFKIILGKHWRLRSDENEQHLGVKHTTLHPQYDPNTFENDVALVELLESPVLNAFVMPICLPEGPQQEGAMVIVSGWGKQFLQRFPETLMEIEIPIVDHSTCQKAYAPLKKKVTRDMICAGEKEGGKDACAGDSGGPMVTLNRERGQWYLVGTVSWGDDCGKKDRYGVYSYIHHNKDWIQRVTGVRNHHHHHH

[2] = biological target: recombinant human MASP2 active protease (amino acids 297-686, C-terminal His Tag) (human, UniProt O00187 297-686); test: cell-based or functional assay
Sequence of recombinant human MASP2 active protease (amino acids 297-686, C-terminal His Tag) (O00187 other isoform, or with tags, fused parts or gaps limits assumed): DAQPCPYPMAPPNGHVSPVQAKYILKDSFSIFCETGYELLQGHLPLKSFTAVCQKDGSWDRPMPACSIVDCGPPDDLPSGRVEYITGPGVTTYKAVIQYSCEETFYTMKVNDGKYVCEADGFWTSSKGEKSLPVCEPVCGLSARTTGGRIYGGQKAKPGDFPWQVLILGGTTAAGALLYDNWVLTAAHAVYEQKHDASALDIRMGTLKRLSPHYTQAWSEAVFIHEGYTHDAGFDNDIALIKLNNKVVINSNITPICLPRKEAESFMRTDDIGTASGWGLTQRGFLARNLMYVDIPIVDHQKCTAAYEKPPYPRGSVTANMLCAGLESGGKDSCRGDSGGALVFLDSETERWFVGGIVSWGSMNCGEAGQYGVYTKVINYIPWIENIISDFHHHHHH

Binder | human MASP1 IC50 [1] | human MASP2 IC50 [2]
B1 | 0.0028 µM | 0.15 µM
B2 | 0.0029 µM | 0.2 µM
B3 | 0.00114 µM | 0.05 µM
B4 | 0.0028 µM | 0.048 µM
[Sar]ICSRSLP[Oic]I[Pen]IP-NH2 (disulfide 3-11; also: TFA salt) [((N-Me)G)-IC+SRSLP-(Oic)-I-(Pen)+IP-NH2] | 0.0029 µM | 0.0696 µM
AICSRS[tBuAla]PP[(2S)‑2‑(Amino)‑2‑((1S,3R)-3-hydroxycyclohexyl)acetic acid][NMeC]IPD-NH2 (disulfide 3-11) [AIC+SRS-((tBu)A)-PP-((2S)-2-(Amino)-2-[(1S,3R)-3-hydroxycyclohexyl]acetic acid)-((N-Me)C)+IPD-NH2] | 0.003 µM | 0.33 µM
[Sar]ICSRSLP[Oic]I[Pen]IP[PEG4‑CH2CO2H (15 atoms)]-NH2 (disulfide 3-11) [((N-Me)G)-IC+SRSLP-(Oic)-I-(Pen)+IP-(PEG4-CH2CO2H (15 atoms))-NH2] | 0.0029 µM | 0.089 µM
B5 | 0.0029 µM | 0.13 µM
B6 | 0.0028 µM | 0.145 µM
B7 | 0.0029 µM | 0.16 µM
B8 | 0.003 µM | 0.36 µM
B9 | 0.0028 µM | 0.13 µM
